Reference: PMC4337892 (Molecular cell, 2014)

Columns and labels:
[1] = molecular target: T1, H. sapiens laforin residues 1-328, wild-type (human), O95278; assay: AUC; conditions: remark: other sources report otherwise
T1 chain: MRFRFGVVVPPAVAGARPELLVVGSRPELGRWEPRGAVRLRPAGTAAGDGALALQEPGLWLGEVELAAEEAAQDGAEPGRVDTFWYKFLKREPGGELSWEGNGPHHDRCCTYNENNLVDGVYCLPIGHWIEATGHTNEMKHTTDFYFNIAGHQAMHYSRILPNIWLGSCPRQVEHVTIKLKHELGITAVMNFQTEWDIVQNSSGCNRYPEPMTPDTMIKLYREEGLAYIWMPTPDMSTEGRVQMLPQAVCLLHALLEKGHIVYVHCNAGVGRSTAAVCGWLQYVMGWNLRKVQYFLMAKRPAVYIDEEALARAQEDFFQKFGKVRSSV

[2] = molecular target: the molecule itself; assay: SEC-SAXS

B1: H. sapiens laforin residues 1-328, wild-type, O95278 1-328 (enzyme)
chain: MRFRFGVVVPPAVAGARPELLVVGSRPELGRWEPRGAVRLRPAGTAAGDGALALQEPGLWLGEVELAAEEAAQDGAEPGRVDTFWYKFLKREPGGELSWEGNGPHHDRCCTYNENNLVDGVYCLPIGHWIEATGHTNEMKHTTDFYFNIAGHQAMHYSRILPNIWLGSCPRQVEHVTIKLKHELGITAVMNFQTEWDIVQNSSGCNRYPEPMTPDTMIKLYREEGLAYIWMPTPDMSTEGRVQMLPQAVCLLHALLEKGHIVYVHCNAGVGRSTAAVCGWLQYVMGWNLRKVQYFLMAKRPAVYIDEEALARAQEDFFQKFGKVRSSV
[1]
  stoichiometry N: 2

B2: H. sapiens laforin residues 1-328, C266S (enzyme, human, UniProt O95278 1-328, looked up)
chain: MRFRFGVVVPPAVAGARPELLVVGSRPELGRWEPRGAVRLRPAGTAAGDGALALQEPGLWLGEVELAAEEAAQDGAEPGRVDTFWYKFLKREPGGELSWEGNGPHHDRCCTYNENNLVDGVYCLPIGHWIEATGHTNEMKHTTDFYFNIAGHQAMHYSRILPNIWLGSCPRQVEHVTIKLKHELGITAVMNFQTEWDIVQNSSGCNRYPEPMTPDTMIKLYREEGLAYIWMPTPDMSTEGRVQMLPQAVCLLHALLEKGHIVYVHSNAGVGRSTAAVCGWLQYVMGWNLRKVQYFLMAKRPAVYIDEEALARAQEDFFQKFGKVRSSV
[2]
  stoichiometry N: 2
